This is an account of results in patent publication US6710030B1, “Contortrostain (CN) and methods for its use in preventing metastasis and other conditions” (University of Southern California, priority 1993, dated 2004).

The test system of one data set is MDA-MB-435 tumor. Nature of the data set: Orthotopic MDA-MB-435 breast cancer metastatic model in nude mice. Format: in vivo. As to the method: A spontaneous (orthotopic) metastatic model of nude mice has been established by implantation of MDA-MB-435 cells (5×10^5 in 0.1 ml) in the mammary fat pads (mfp). Palpable tumors appeared by the 10th day post-implantation. Daily injections of CN into the tumor masses of each of the groups arc carried out, started at the 14th day post-implantation. By the 8th week post-implantation, tumors were removed. The animals were allowed to survive for 2 more weeks without CN administration. The animals were then sacrificed and lung metastases were carefully examined. […] The volumes of tumor masses (mean±S.D.) of control (dark bars), low-dosage (0.5 μg/day, gray bars), and high-dosage (5 μ/day, light gray bars) CN-treated group are shown. The seven clusters of bars from left to right represent the data of pre-injection (PI, 14th day post-implantation) and the 1st through 6th week of injection. Student t-tests were employed to test the significance of differences. *and** indicate P<0.05 and p<0.01, respectively.

The next data set deals with αvβ5 293 cells. Nature of the data set: Phosphotyrosine immunoblot, 293 cells expressing αvβ5. The data set is classed as cell-based, human. To be noted: 10 min. As to the method:
Cell culture, preparation and stimulation—T24 cells were maintained in RPMI 1640 medium containing 5% fetal bovine serum, and MDA-MB-435 and 293 cells were maintained in Dulbecco's modified Eagle's medium with 10% serum at 37° C. in 5% CO2. Cells were washed with phosphate-buffered saline (PBS) and starved in the appropriate serum-free medium for 6 h at 37° C. Cells were detached by brief treatment with 0.05% trypsin/0.02% EDTA in PBS and collected by centrifugation, resuspended in soybean trypsin inhibitor (1 mg/ml in serum-free medium), and washed in 2% bovine serum albumin/serum-free medium. Cells were maintained in suspension for 1 h in 2% bovine serum albumin/serum-free medium at 37° C. with end-over-end agitation. Quiescent cells (3×10^6/ml) were treated with disintegrins or other reagents while in suspension, or were allowed to adhere to Matrigel (Becton Dickinson, Bedford, Mass.) diluted 1:100 with serum-free medium during treatment. […]
Contortrostatin- induced signaling events are mediated by the αvβ3 integrin—The integrinbinding specificities of echistatin and flavoridin have been determined previously (Niewiarowski et al., supra; and Pfaff, M., McLane, M. A., Beviglia, L., Niewiarowski, S., and Timpl, R. (1994) Cell Adhesion and Communication 2, 491-501). […]
For orientation: A western blot detects proteins with antibodies after separation by electrophoresis.

For the next data set, the system named is MDA-MB-435 tumor on CAM. As to the kind of experiment: MDA-MB-435 tumor induced angiogenesis on chick embryo chorioallantoic membrane (CAM). Format: in vivo. As to the method: MDA-MB-435 tumor masses were inoculated on CAM of 10-day chick embryos. CN at various dosages were injected intravenously into CAM on day 2 post-inoculation. […] Chick embryo is immunodeficient, and thus allows the growth of implanted MDA-MB-435 tumor. The embryos are incubated at 37° C. with humidity at 60%. CN at various dosages was injected intravenously into CAM on day 2 post-inoculation. […] On the top (FIG. 16A) is the control embryo. The vessels are distributed in a convergent manner with the tumor mass in the center. In the middle (FIG. 16B) is the CAM treated with 20 μg of CN. On the bottom (FIG. 16C) is the CAM treated by 150 μg of CN.

The subject of data set [1] is human melanoma M24 met cells. Nature of the data set: CN binding to human melanoma M24 met cells. An excerpt:
The compositions of the present invention also have utility in inhibiting metastasis in melanoma, carcinoma and sarcoma patients. […] Thus, methods and compositions for preventing metastases in melanoma, carcinoma and sarcoma patients are also contemplated as within the scope of the present invention.

Another data set concerns OVCAR-5 cells. As to the kind of experiment: Phosphotyrosine immunoblot, OVCAR-5 cells. Format: cell-based, human. To be noted: data not shown.
Data set [2] concerns human platelet rich plasma. To be noted: cited from earlier work.
Data set [3] relates to c-Ha-ras transfected rat embryo (4R) cells. To be noted: cited from earlier work.

Entries after “also recorded” stand apart in the source; their conditions may differ. Like-named read-outs stand apart in the source and are kept apart here. Bounds are passed on as bounds.

B1: contortrostatin (protein)
chain: DAPANPCCDAATCKLTTGSQCADGLCCDQCKFMKEGTVCRRARGDDLDDYCNGISAGCPRNPFHA
The Kd is the constant that tells how readily two partners part at equilibrium. Turning to B1, the “# of nodules in lung (median)” value with MDA-MB-435 tumor (5 μg/day) came out at 4.5. Also, in the data set with MDA-MB-435 tumor (5 μg/day), the “Mean size of relapse tumor” value stood at 48.7 ± 10.5 mm^3. For the same molecule, in the data set on MDA-MB-435 tumor (5 μg/day, animals with/total), the In situ relapse was 2/6. Also, the “Metastasis incidence, Other Organs” value in the data set on MDA-MB-435 tumor (5 μg/day, chest wall, mediastinum, diaphragm, pleurae) is 2/6. In the data set on MDA-MB-435 tumor (daily local injection into tumor), the “growth of the tumor (tumor mass volume)” value was “substantially inhibited the growth rate of the tumor; also recorded: significantly smaller”. This molecule came in with an inhibition of metastasis in the data set on MDA-MB-435 tumor (high dose CN group versus control) above 90%. For the same molecule, the “mean weight of tumors” value in the data set with MDA-MB-435 tumor (high-dose CN (5 μg/day), P<0.05) is recorded as “significantly lower than control group”. In addition, the “bleeding at the injection sites” value in the data set on MDA-MB-435 tumor (mouse, in vivo) was “Some bleeding at the injection sites”. In addition, in the data set with MDA-MB-435 tumor (mouse, in vivo), the spontaneous hemorrhage entry is on record as “no spontaneous hemorrhage”. Moreover, the “toxicity in chronic experiment” value in the data set with MDA-MB-435 tumor (mouse, in vivo) is on record as “not toxic”. The tyrosine phosphorylation result in the data set on αvβ5 293 cells was “no response”; with OVCAR-5 cells it was “do not show significant enhancement of tyrosine phosphorylation”. Also, the “tumor mass on CAM” value in the data set on MDA-MB-435 tumor on CAM (20 μg of CN) is “smaller than that on control CAM”; in the data set on MDA-MB-435 tumor on CAM (150 μg of CN), “necrotic tumor mass with volume significantly smaller than control and low dose CN”. Besides, the “tumor induced angiogenesis (vessels)” value in the data set with MDA-MB-435 tumor on CAM (20 μg of CN intravenously) was “thinner and less dense than control”; in the data set with MDA-MB-435 tumor on CAM (150 μg of CN intravenously), “the vessels are even thinner and the convergent distribution pattern disappears completely”. Besides, in data set [1], the “number of sites, high affinity site” value is 96,000 (±39,000) sites per cell. Moreover, the “number of sites, lower affinity site” value in data set [1] is 480,000 (±90,000) sites per cell. Besides, the Kd in data set [1] (read-out: Kd, lower affinity site) was found to be 0.041 µM; in data set [1] (read-out: dissociation constant (Kd), high affinity site), 0.0011 µM. Further, in data set [2], the “50% inhibition (IC50) of human platelet aggregation in platelet rich plasma” value was 0.8 mg/L. The “concentration that completely inhibits ADP-induced platelet aggregation” value in data set [2] (preincubation for 1 minute) is “approximately 100 nM”. Further, the “Inhibition of 4R cell binding to fibronectin” value was 46% in data set [3] (CN at 1 μg/ml) and 88% in data set [3] (CN at 5 μg/ml).
